Earlier results in PMC3413252.

Key:
surface IL6 receptor = surface IL6 receptor (UniProt P08887)
soluble IL6 receptor = soluble IL6 receptor (UniProt P08887)

Chain of IL6 (P05231 30-212): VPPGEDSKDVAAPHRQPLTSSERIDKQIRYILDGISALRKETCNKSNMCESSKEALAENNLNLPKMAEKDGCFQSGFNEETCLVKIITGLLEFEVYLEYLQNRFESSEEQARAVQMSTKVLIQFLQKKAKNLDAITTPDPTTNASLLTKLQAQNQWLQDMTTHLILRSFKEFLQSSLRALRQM

IL6 (from UniProt P05231)
Kd (surface IL6 receptor): 0.1 nM | Kd (soluble IL6 receptor): 30 nM
